Results taken from patent US20230272081A1 (AVACTA LIFE SCIENCES, published 2023).
Blank lines part the entries; values can stand above or below the binder they belong to.

Legend:
[1] = target: PD-L1 (PD-1/PD-L1 blockade Bioassay, Promega) (UniProt Q9NZQ7 19-290, limits assumed); experiment: cell-based or functional assay
[2] = target: T1, mouse serum albumin (MSA) (mouse, UniProt P07724 25-608); experiment: SPR (Biacore) kinetic analysis, MSA, pH 6.0; reference HSA-18 monomer
[3] = target: T2, human PD-L1-Fc (R&D Systems) (human, UniProt Q9NZQ7 19-239); experiment: SPR (Biacore T200), PD-L1-Fc amine-coupled to CM5 chip, AFFIMER as analyte, 1:1 Langmuir fit
T2 construct: Bought from R&D Systems; also called rhPD-L1-Fc; human PD-L1 Fc chimeric protein; not shown: the Fc part of the bought chimera is not described
T2 sequence (Q9NZQ7 19-239): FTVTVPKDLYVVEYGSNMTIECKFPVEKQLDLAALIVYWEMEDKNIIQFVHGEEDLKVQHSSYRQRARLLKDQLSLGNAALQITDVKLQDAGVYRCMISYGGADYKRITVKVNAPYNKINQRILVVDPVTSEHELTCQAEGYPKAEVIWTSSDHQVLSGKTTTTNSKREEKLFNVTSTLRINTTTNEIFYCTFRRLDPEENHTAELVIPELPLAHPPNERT
Procedure: To analyze PD-L1-Fc binding kinetics, a Biacore T200 kinetic analysis was performed using running buffer HBS-EP+ and series S sensor CM5 (GE Healthcare) chip Fc2 immobilized with PD-L1-Fc (R&D Systems) in 10 mM sodium acetate pH 4.0 using amine coupling reagents (GE Healthcare). The concentration titration of ILF AFFIMER® proteins was run as analyte at a flow rate of 30 μl/min. […] with 3 mM NaOH (GE healthcare) for 20 seconds at 20 μl/min flow rate. The Fc2-1 data blank was subtracted and fit to a 1:1 Langmuir binding model (Biacore evaluation software; GE) to calculate an apparent KD value.

[4] = target: T3, human serum albumin (HSA) (human, UniProt P02768 25-609); experiment: SPR (Biacore) kinetic analysis, pH 6.0 and pH 7.4 running buffer; the pH for each end is not stated; lower end of the range; pH 6.0 or pH 7.4 not told
T3 construct: mature; also called HuSA; HSA (Sigma)
T3 sequence (P02768 25-609): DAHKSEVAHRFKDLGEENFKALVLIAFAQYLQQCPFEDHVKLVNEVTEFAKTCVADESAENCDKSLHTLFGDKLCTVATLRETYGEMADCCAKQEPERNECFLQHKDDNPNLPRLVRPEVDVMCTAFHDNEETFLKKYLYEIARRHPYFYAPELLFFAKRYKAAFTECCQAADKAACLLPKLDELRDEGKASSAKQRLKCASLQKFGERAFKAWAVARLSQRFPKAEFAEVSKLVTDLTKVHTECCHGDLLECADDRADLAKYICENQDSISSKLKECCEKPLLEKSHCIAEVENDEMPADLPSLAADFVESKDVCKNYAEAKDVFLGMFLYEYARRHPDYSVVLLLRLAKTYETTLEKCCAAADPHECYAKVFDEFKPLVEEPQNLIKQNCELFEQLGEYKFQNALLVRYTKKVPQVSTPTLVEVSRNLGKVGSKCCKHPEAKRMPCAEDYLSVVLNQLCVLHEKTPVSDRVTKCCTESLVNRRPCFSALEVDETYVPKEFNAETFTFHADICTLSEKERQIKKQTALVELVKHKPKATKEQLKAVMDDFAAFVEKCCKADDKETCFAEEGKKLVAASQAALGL

[5] = target: T1, mouse serum albumin (MSA); experiment: binding ELISA on coated MSA, pH 7.4 by the legend (the panel's title prints pH 7)

Sequence of PD-L1 (PD-1/PD-L1 blockade Bioassay, Promega) (Q9NZQ7 19-290 limits assumed): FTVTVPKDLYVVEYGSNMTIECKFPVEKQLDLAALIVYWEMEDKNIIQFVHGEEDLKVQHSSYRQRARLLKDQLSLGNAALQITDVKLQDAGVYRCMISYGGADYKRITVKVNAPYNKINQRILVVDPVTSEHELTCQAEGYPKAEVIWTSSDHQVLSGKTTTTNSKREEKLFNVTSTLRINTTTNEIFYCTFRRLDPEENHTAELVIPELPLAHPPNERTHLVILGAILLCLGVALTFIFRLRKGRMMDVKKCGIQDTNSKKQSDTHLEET

- half-maximal concentration in the PD-1/PD-L1 blockade Bioassay (Promega), fold change relative to assay buffer; the table's head prints IC50 (nM), the text calls it EC50 [1]: 434 nM
B1: AVA04-251 XT15 (designed binder)
chain: MIPRGLSEAKPATPEIQEIVDKVKPQLEEKTNETYGKLEAVQYKTQVLAREGRQDWVLSTNYYIKVRAGDNKYMHLKVFNGPWVPFPHQQLADRVLTGYQVDKNKDDELTGFAEAAAKEAAAKEAAAKEAAAKEAAAKEAAAKMIPRGLSEAKPATPEIQEIVDKVKPQLEEKTNETYGKLEAVQYKTQVLANFFQRRWPGSTNYYIKVRAGDNKYMHLKVFNGPWKFRNTDRGADRVLTGYQVDKNKDDELTGFAEAAAKEAAAKEAAAKEAAAKEAAAKEAAAKMIPRGLSEAKPATPEIQEIVDKVKPQLEEKTNETYGKLEAVQYKTQVLAREGRQDWVLSTNYYIKVRAGDNKYMHLKVFNGPWVPFPHQQLADRVLTGYQVDKNKDDELTGFHHHHHH

- fold of the monomer serum albumin binding AFFIMER affinity [2]: ≤ 2 fold
B2: AVA04-251 XT61 (designed binder)
chain: MIPRGLSEAKPATPEIQEIVDKVKPQLEEKTNETYGKLEAVQYKTQVLAREGRQDWVLSTNYYIKVRAGDNKYMHLKVFNGPWVPFPHQQLADRVLTGYQVDKNKDDELTGFAEAAAKEAAAKEAAAKEAAAKEAAAKEAAAKMIPRGLSEAKPATPEIQEIVDKVKPQLEEKTNETYGKLEAVQYKTQVLADWWQAKWPHSTNYYIKVRAGDNKYMHLKVFNGPYKVHQSSGGADRVLTGYQVDKNKDDELTGFAEAAAKEAAAKEAAAKEAAAKEAAAKEAAAKMIPRGLSEAKPATPEIQEIVDKVKPQLEEKTNETYGKLEAVQYKTQVLAREGRQDWVLSTNYYIKVRAGDNKYMHLKVFNGPWVPFPHQQLADRVLTGYQVDKNKDDELTGFHHHHHH
notes: Made in E. coli and purified on NiNTA

- half-maximal concentration in the PD-1/PD-L1 blockade Bioassay (Promega), fold change relative to assay buffer; the table's head prints IC50 (nM), the text calls it EC50 [1]: 176 nM
B3: AVA04-251 XT14 (designed binder)
chain: MIPRGLSEAKPATPEIQEIVDKVKPQLEEKTNETYGKLEAVQYKTQVLAREGRQDWVLSTNYYIKVRAGDNKYMHLKVFNGPWVPFPHQQLADRVLTGYQVDKNKDDELTGFAEAAAKEAAAKEAAAKEAAAKEAAAKEAAAKMIPRGLSEAKPATPEIQEIVDKVKPQLEEKTNETYGKLEAVQYKTQVLAREGRQDWVLSTNYYIKVRAGDNKYMHLKVFNGPWVPFPHQQLADRVLTGYQVDKNKDDELTGFAEAAAKEAAAKEAAAKEAAAKEAAAKEAAAKMIPRGLSEAKPATPEIQEIVDKVKPQLEEKTNETYGKLEAVQYKTQVLANFFQRRWPGSTNYYIKVRAGDNKYMHLKVFNGPWKFRNTDRGADRVLTGYQVDKNKDDELTGFHHHHHH

- Kd [3]: 5.43 nM
- koff [3]: 0.00977 s⁻¹
- kon [3]: 1.8e+06 M⁻¹ s⁻¹
B4: AVA04-236 (designed binder)
chain: MIPRGLSEAKPATPEIQEIVDKVKPQLEEKTNETYGKLEAVQYKTQVLAKEHGPDSWWSTNYYIKVRAGDNKYMHLKVFNGPQEKNQWVEEADRVLTGYQVDKNKDDELTGFHHHHHH

- Kd [3]: 1.68 nM
- koff [3]: 0.00345 s⁻¹
- kon [3]: 2.05e+06 M⁻¹ s⁻¹
B5: AVA04-269 (designed binder)
chain: MIPRGLSEAKPATPEIQEIVDKVKPQLEEKTNETYGKLEAVQYKTQVLAKEYGPEEWWSTNYYIKVRAGDNKYMHLKVFNGPGDYEQVLIHADRVLTGYQVDKNKDDELTGFHHHHHH

- Kd [4]: 109 to 152 nM
B6: HSA-18 (designed binder)
chain: MIPRGLSEAKPATPEIQEIVDKVKPQLEEKTNETYGKLEAVQYKTQVLADWWQAKWPHSTNYYIKVRAGDNKYMHLKVFNGPYKVHQSSGGADRVLTGYQVDKNKDDELTGFHHHHHH
notes: also called HSA-18 monomer

- fold of the monomer serum albumin binding AFFIMER affinity [2]: ≤ 2 fold
B7: AVA04-251 XT60 (designed binder)
chain: MIPRGLSEAKPATPEIQEIVDKVKPQLEEKTNETYGKLEAVQYKTQVLAREGRQDWVLSTNYYIKVRAGDNKYMHLKVFNGPWVPFPHQQLADRVLTGYQVDKNKDDELTGFAEAAAKEAAAKEAAAKEAAAKEAAAKEAAAKMIPRGLSEAKPATPEIQEIVDKVKPQLEEKTNETYGKLEAVQYKTQVLAREGRQDWVLSTNYYIKVRAGDNKYMHLKVFNGPWVPFPHQQLADRVLTGYQVDKNKDDELTGFAEAAAKEAAAKEAAAKEAAAKEAAAKEAAAKMIPRGLSEAKPATPEIQEIVDKVKPQLEEKTNETYGKLEAVQYKTQVLADWWQAKWPHSTNYYIKVRAGDNKYMHLKVFNGPYKVHQSSGGADRVLTGYQVDKNKDDELTGFHHHHHH
notes: as for B2

- EC50 (read off the curve) [5]: ~5 nM
B8: HSA-41 (designed binder)
chain: MIPRGLSEAKPATPEIQEIVDKVKPQLEEKTNETYGKLEAVQYKTQVLANFFQRRWPGSTNYYIKVRAGDNKYMHLKVFNGPWKFRNTDRGADRVLTGYQVDKNKDDELTGFHHHHHH
notes: Made in E. coli; also called AVA-41; AFFIMER® XT “AVA-41”

- Kd [3]: 2.95 nM
- koff [3]: 0.0109 s⁻¹
- kon [3]: 3.68e+06 M⁻¹ s⁻¹
B9: AVA04-261 (designed binder)
chain: MIPRGLSEAKPATPEIQEIVDKVKPQLEEKTNETYGKLEAVQYKTQVLAHAYGPRDWDSTNYYIKVRAGDNKYMHLKVFNGPPADHVLEEAADRVLTGYQVDKNKDDELTGFHHHHHH
